Drawing on patent US20140087995A1 (published 2014), this text covers IC50 for five molecules.

To fix the notation:
T1: human amylin receptor (human, UniProt P30988 25-474; O60896 24-148, limits assumed)
T1 construct: whole, on cells; Calcitonin receptor plus RAMP-3 gives the amylin 3(a) receptor; membranes of Amylin 3(a)/CRE-luc cells were used; also called hAmylin-R; hAmylinR
T1 sequence (looked up) 1: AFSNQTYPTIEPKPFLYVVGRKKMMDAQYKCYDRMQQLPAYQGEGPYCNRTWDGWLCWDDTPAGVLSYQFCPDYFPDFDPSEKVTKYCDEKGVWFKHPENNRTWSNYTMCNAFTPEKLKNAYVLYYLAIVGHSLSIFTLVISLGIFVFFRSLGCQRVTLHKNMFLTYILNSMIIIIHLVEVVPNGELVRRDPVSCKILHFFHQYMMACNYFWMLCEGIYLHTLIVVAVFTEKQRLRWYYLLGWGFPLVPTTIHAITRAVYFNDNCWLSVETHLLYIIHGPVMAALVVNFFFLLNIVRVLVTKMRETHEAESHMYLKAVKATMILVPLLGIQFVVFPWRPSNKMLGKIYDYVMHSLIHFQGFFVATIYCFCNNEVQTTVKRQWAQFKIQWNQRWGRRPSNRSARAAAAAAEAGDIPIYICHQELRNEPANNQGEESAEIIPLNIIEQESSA
T1 sequence (looked up) 2: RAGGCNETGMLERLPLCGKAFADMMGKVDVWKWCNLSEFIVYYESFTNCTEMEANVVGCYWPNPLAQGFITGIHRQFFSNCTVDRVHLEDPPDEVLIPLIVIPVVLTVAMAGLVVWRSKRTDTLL

B1: N^α1 N^α1-[(4S)-4-carboxy-4-[[(4S)-4-carboxy-4-(19-carboxynonadecanoylamino)butanoyl]amino]butanoyl]-[Glu14,Arg17,Pro21,Pro27]-h-amylin (peptide)
peptide: {C20 diacid-γGlu-γGlu}-KCNTATCATQRLAEFLRHSSPNFGAIPSSTNVGSNTY-NH2
modifications: disulfide 2-7
SMILES: CC[C@H](C)[C@H](NC(=O)[C@H](C)NC(=O)CNC(=O)[C@H](Cc1ccccc1)NC(=O)[C@H](CC(N)=O)NC(=O)[C@@H]1CCCN1C(=O)[C@H](CO)NC(=O)[C@H](CO)NC(=O)[C@H](Cc1c[nH]cn1)NC(=O)[C@H](CCCNC(=N)N)NC(=O)[C@H](CC(C)C)NC(=O)[C@H](Cc1ccccc1)NC(=O)[C@H](CCC(=O)O)NC(=O)[C@H](C)NC(=O)[C@H](CC(C)C)NC(=O)[C@H](CCCNC(=N)N)NC(=O)[C@H](CCC(N)=O)NC(=O)[C@@H](NC(=O)[C@H](C)NC(=O)[C@@H]1CSSC[C@H](NC(=O)[C@H](CCCCN)NC(=O)CC[C@H](NC(=O)CC[C@H](NC(=O)CCCCCCCCCCCCCCCCCCC(=O)O)C(=O)O)C(=O)O)C(=O)N[C@@H](CC(N)=O)C(=O)N[C@@H]([C@@H](C)O)C(=O)N[C@@H](C)C(=O)N[C@@H]([C@@H](C)O)C(=O)N1)[C@@H](C)O)C(=O)N1CCC[C@H]1C(=O)N[C@@H](CO)C(=O)N[C@@H](CO)C(=O)N[C@H](C(=O)N[C@@H](CC(N)=O)C(=O)N[C@H](C(=O)NCC(=O)N[C@@H](CO)C(=O)N[C@@H](CC(N)=O)C(=O)N[C@H](C(=O)N[C@@H](Cc1ccc(O)cc1)C(N)=O)[C@@H](C)O)C(C)C)[C@@H](C)O
notes: also called 14E, 17R, 21P, 27P
B2: N^α1-[(4S)-4-carboxy-4-(19-carboxynonadecanoylamino)butanoyl]-[Arg17,Pro21,Pro27,Arg34]-h-amylin (peptide)
peptide: KCNTATCATQRLANFLRHSSPNFGAIPSSTNVGRNTY
modifications: C20 diacid-gGlu on the alpha amino group of the N-terminal residue; disulfide Cys2-Cys7 and C-terminal amide as in human amylin
notes: also called 17R, 21P, 27P, 34R
B3: N^α1-[2-[2-[2-[[2-[2-[2-[[(4S)-4-carboxy-4-(19-carboxynonadecanoylamino)butanoyl]amino]ethoxy]ethoxy]acetyl]amino]ethoxy]ethoxy]acetyl]-[Glu14,Arg17,Pro21,Pro27 … (peptide)
peptide: {C20 diacid-γGlu-AEEA-AEEA}-KCNTATCATQRLAEFLRHSSPNFGAIPSSTNVGSNTP-NH2
modifications: disulfide 2-7
SMILES: CC[C@H](C)[C@H](NC(=O)[C@H](C)NC(=O)CNC(=O)[C@H](Cc1ccccc1)NC(=O)[C@H](CC(N)=O)NC(=O)[C@@H]1CCCN1C(=O)[C@H](CO)NC(=O)[C@H](CO)NC(=O)[C@H](Cc1c[nH]cn1)NC(=O)[C@H](CCCNC(=N)N)NC(=O)[C@H](CC(C)C)NC(=O)[C@H](Cc1ccccc1)NC(=O)[C@H](CCC(=O)O)NC(=O)[C@H](C)NC(=O)[C@H](CC(C)C)NC(=O)[C@H](CCCNC(=N)N)NC(=O)[C@H](CCC(N)=O)NC(=O)[C@@H](NC(=O)[C@H](C)NC(=O)[C@@H]1CSSC[C@H](NC(=O)[C@H](CCCCN)NC(=O)COCCOCCNC(=O)COCCOCCNC(=O)CC[C@H](NC(=O)CCCCCCCCCCCCCCCCCCC(=O)O)C(=O)O)C(=O)N[C@@H](CC(N)=O)C(=O)N[C@@H]([C@@H](C)O)C(=O)N[C@@H](C)C(=O)N[C@@H]([C@@H](C)O)C(=O)N1)[C@@H](C)O)C(=O)N1CCC[C@H]1C(=O)N[C@@H](CO)C(=O)N[C@@H](CO)C(=O)N[C@H](C(=O)N[C@@H](CC(N)=O)C(=O)N[C@H](C(=O)NCC(=O)N[C@@H](CO)C(=O)N[C@@H](CC(N)=O)C(=O)N[C@H](C(=O)N1CCC[C@H]1C(N)=O)[C@@H](C)O)C(C)C)[C@@H](C)O
notes: also called 14E, 17R, 21P, 27P, 37P
B4: N^α1-[(4S)-4-carboxy-4-(19-carboxynonadecanoylamino)butanoyl]-[Arg17,Pro21,Pro27,His34]-h-amylin (peptide)
peptide: B2 peptide with R34H
modifications: C20 diacid-gGlu on the alpha amino group of the N-terminal residue; disulfide Cys2-Cys7 and C-terminal amide as in human amylin
notes: also called 17R, 21P, 27P, 34H
B5: N^α1-[2-[2-[2-[[2-[2-[2-[[(4S)-4-carboxy-4-(19-carboxynonadecanoylamino)butanoyl]amino]ethoxy]ethoxy]acetyl]amino]ethoxy]ethoxy]acetyl]-[Glu14,Arg17,Pro21,Pro27 … (peptide)
peptide: B2 peptide with N14E, R34S
modifications: C20 diacid-gGlu-2xOEG on the alpha amino group of the N-terminal residue; disulfide Cys2-Cys7 and C-terminal amide as in human amylin
notes: as for B1

Where a chain is given by its changes, count along the chain named. Numbered stars: 1 amine (or outer) side, 2 acyl side, 3 side chain; on linkers, the order of the positions; unused ones are H or OH. Bridge positions count the residues as written; N and C are the ends. * marks the point of attachment. C20 diacid = O=C(O)CCCCCCCCCCCCCCCCCCC(=O)*; γGlu = O=C(O)[C@H](CCC(=O)[*:2])N[*:1]; AEEA = NCCOCCOCC(=O)O

This assay has as its target T1, human amylin receptor. In words: SPA competition binding, displacement of 125I-rat amylin from membranes with human amylin 3(a) receptor (Assay V). The protocol:
The binding assay was performed using scintillation proximity assay (SPA) beads (RPNQ0001) from PerkinElmer and cell membranes from the Amylin 3(a)/CRE-luc cells (as described in Assay (II)) were used. Membranes were prepared in the following way; the cells were rinsed with PBS and incubated with Versene for approximately 5 min before harvesting. The cells were flushed with PBS and the cell-suspension was centrifuged for 5 min at 1000 rpm. Cells were homogenized (ultrathurrax) in a buffer containing 20 mM Na-HEPES and 10 mM EDTA (pH 7.4) and centrifuged at 20.000 rpm for 15 min. The resulting pellet was resuspended, homogenized and centrifuged (20.000 rpm, 15 min) in a buffer containing 20 mM Na-HEPES and 0.1 mM EDTA (pH 7.4, buffer 2). The resulting pellet was resuspended in buffer 2 and protein concentration was measured (BCA protein Assay, Pierce). The homogenate was kept cold during the whole procedure. The membranes were kept at −80° C. until use. The assay was performed in a 384 well Optiplate (PerkinElmer) in a total volume of 40 ul. Membranes were mixed with SPA beads. Final concentration of membranes 35 ng/μL final and SPA beads was 0.05 mg/well. Test-compounds were dissolved in DMSO and further diluted in assay buffer (50 mM Hepes, pH 7.4, 1 mM CaCl2, 5 mM MgCl₂, 0.1% OA and 0.02% Tween20). […] The final mixture was incubated with shaking at 400 rpm for 120 min at 25° C. prior to centrifugation (1500 rpm, 10 min). Samples were analyzed on TopCounter™ (Packard). The IC₅₀ was calculated using (one site binding competition analysis) GraphPad Prism5 as a measure of receptor affinity.
In general terms: Displacement assays read how much labelled ligand stays bound in the presence of the test substance.
A word on the IC50: it is the concentration that inhibits the measured activity by half. For B1, the IC50 was 0.597 nM.

On to B2, for which the IC50 came to 0.665 nM.

In the case of B3, the IC50 amounted to 0.217 nM.

The molecule B4 showed an IC50 of 0.549 nM.

B5: the 50% inhibitory concentration (IC50) was 0.556 nM. This IC50 and that of the molecule before are within 1.5-fold of each other.
